Reference: US6416957, “Method for modulating process mediated by farnesoid activated receptors” (The Salk Institute for Biological Studies)

Target: FAR (FXR)-RXRalpha heterodimer (Rattus norvegicus / Homo sapiens, UniProt Q62735;P19793 Q62735:1-469,P19793:1-462)
Assay: cell_activity; 50 uM JH III, CV-1 cells; 17-fold JH III, 76-fold LG69, 212-fold both in p89; parental MTV reporter lacking EcREs not activated
Conditions: tags: CMV-driven expression in CV-1 cells
Protocol: Thus, with reference to FIG. 5A, CV-1 cells were transiently transfected with hsp27-EcRE×5 MTV-luciferase alone (−) or with expression vectors for rat FAR and/or human RXRα. Reporter activity was assayed after treating cells with or without 50 μM JH III.

Chain of FAR (FXR)-RXRalpha heterodimer (Q62735 whole entry, chain 1 of 2): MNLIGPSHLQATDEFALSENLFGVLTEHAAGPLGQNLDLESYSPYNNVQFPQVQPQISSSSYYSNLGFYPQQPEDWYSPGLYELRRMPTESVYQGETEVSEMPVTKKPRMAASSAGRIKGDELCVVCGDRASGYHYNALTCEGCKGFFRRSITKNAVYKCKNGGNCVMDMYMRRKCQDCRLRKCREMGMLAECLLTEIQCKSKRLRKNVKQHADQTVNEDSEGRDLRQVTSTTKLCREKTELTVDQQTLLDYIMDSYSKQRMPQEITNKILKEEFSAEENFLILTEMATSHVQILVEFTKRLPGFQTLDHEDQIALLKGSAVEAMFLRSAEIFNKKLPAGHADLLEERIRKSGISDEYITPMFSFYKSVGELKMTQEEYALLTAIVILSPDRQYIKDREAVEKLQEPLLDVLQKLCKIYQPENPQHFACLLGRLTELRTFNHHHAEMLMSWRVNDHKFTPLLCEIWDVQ
Chain of FAR (FXR)-RXRalpha heterodimer (P19793 whole entry, chain 2 of 2): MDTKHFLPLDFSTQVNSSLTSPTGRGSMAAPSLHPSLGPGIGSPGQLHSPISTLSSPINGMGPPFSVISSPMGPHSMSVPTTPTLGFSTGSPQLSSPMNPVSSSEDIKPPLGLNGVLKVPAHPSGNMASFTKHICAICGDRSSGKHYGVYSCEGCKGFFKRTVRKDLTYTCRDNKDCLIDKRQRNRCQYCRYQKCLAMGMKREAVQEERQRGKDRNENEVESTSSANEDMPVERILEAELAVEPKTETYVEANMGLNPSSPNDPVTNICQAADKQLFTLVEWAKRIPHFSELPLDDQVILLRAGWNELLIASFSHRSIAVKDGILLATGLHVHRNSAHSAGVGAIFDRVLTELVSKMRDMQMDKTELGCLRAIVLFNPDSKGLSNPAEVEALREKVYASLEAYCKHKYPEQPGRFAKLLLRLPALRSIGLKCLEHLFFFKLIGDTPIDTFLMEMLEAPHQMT

B1: hsp27-EcREx5 MTV-luciferase reporter (dsDNA)
DNA 1: GGTTCAATGCACT
DNA 2: AGTGCATTGAACC
activity: 10 fold
